Results as given in paper PMC11369598.

B1: KLHL6 wild type, C-terminal Strep-HA tag (KLHL6-strHA) [human] / endogenous KLHL6 [human (endogenous in SuDHL5 and SuDHL4)] (parent)
chain 1: MLMAGQRGAWTMGDVVEKSLEGPLAPSTDEPSQKTGDLVEILNGEKVKFDDAGLSLILQNGLETLRMENALTDVILCVDIQEFSCHRVVLAAASNYFRAMFCNDLKEKYEKRIIIKGVDAETMHTLLDYTYTSKALITKQNVQRVLEAANLFQFLRMVDACASFLTEALNPENCVGILRLADTHSLDSLKKQVQSYIIQNFVQILNSEEFLDLPVDTLHHILKSDDLYVTEEAQVFETVMSWVRHKPSERLCLLPYVLENVRLPLLDPWYFVETVEADPLIRQCPEVFPLLQEARMYHLSGNEIISERTKPRMHEFQSEVFMIIGGCTKDERFVAEVTCLDPLRRSRLEVAKLPLTEHELESENKKWVEFACVTLKNEVYISGGKETQHDVWKYNSSINKWIQIEYLNIGRWRHKMVVLGGKVYVIGGFDGLQRINNVETYDPFHNCWSEAAPLLVHVSSFAATSHKKKLYVIGGGPNGKLATDKTQCYDPSTNKWSLKAAMPVEAKCINAVSFRDRIYVVGGAMRALYAYSPLEDSWCLVTQLSHERASCGIAPCNNRLYITGGRDEKNEVIATVLCWDPEAQKLTEECVLPRGVSHHGSVTIRKSYTHIRRIVPGAVSV
chain 2: B1 chain 1
B2: KLHL6 wild type, C-terminal Strep-HA tag (KLHL6-strHA) [human] / KLHL26 [human (endogenous in SuDHL5)] (parent)
chain 1: B1 chain 1
chain 2: MAESGGSSGGAGGGGAFGAGPGPERPNSTADKNGALKCTFSAPSHSTSLLQGLATLRAQGQLLDVVLTINREAFPAHKVVLAACSDYFRAMFTGGMREASQDVIELKGVSARGLRHIIDFAYSAEVTLDLDCVQDVLGAAVFLQMLPVVELCEEFLKAAMSVETCLNIGQMATTFSLASLRESVDAFTFRHFLQIAEEEDFLRLPLERLVFFLQSNRLQSCAEIDLFRAAVRWLQHDPARRPRASHVLCHIRFPLMQSSELVDSVQTLDIMVEDVLCRQYLLEAFNYQVLPFRQHEMQSPRTAVRSDVPSLVTFGGTPYTDSDRSVSSKVYQLPEPGARHFRELTEMEVGCSHTCVAVLDNFVYVAGGQHLQYRSGEGAVDACYRYDPHLNRWLRLQAMQESRIQFQLNVLCGMVYATGGRNRAGSLASVERYCPRRNEWGYACSLKRRTWGHAGAASGGRLYISGGYGISVEDKKALHCYDPVADQWEFKAPMSEPRVLHAMVGAGGRIYALGGRMDHVDRCFDVLAVEYYVPETDQWTSVSPMRAGQSEAGCCLLERKIYIVGGYNWRLNNVTGIVQVYNTDTDEWERDLHFPESFAGIACAPVLLPRAGTRR
B3: KLHL6 wild type fused to C-terminal BioID2 [human] / LuZP1 [human (endogenous in SuDHL5 and U2932)] (parent)
chain 1: B1 chain 1
chain 2: MAEFTSYKETASSRHLRFKLQSLSRRLDELEEATKNLQKAEDELLDLQDKVIQAEGSNSSMLAEIEVLRQRVLRIEGKDEEIKRAEDLCRLMKEKLEEEENLTRELKSEIERLQKRMAELEKLEEAFSRSKNDCTQLCLSLNEERNLTKKISSELEMLRVKVKELESSEDRLDKTEQSLASELEKLKSLTLSFVSERKYLNEKEKENEKLIKELTQKLEQNKKMNRDYTRNASNLERNDLRIEDGISSTLPSKESRRKGGLDYLKQVENETRNKSENEKNRNQEDNKVKDLNQEIEKLKTQIKHFESLEEELKKMKSKNNDLQDNYLSEQNKNKLLASQLEEIKLQIKKQKELENGEVEGEDAFLSSKGRHERTKFRGHGSEASVSKHTARELSPQHKRERLRNREFALNNENYSLSNRQVSSPSFTNRRAAKASHMGVSTDSGTQETKKTEDRFVPGSSQSEGKKSREQPSVLSRYPPAAQEHSKAWKGTSKPGTESGLKGKVEKTTRTFSDTTHGSVPSDPLGRADKASDTSSETVFGKRGHVLGNGSQVTQAANSGCSKAIGALASSRRSSSEGLSKGKKAANGLEADNSCPNSKAPVLSKYPYSCRSQENILQGFSTSHKEGVNQPAAVVMEDSSPHEALRCRVIKSSGREKPDSDDDLDIASLVTAKLVNTTITPEPEPKPQPNSREKAKTRGAPRTSLFENDKDAGMENESVKSVRASTNTMELPDTNGAGVKSQRPFSPREALRSRAIIKPVIVDKDVKKIMGGSGTETTLEKQKPVSKPGPNKVTSSITIYPSDSSSPRAAPGEALRERHTSTSNIQVGLAELTSVSNHVSSPFELSIHKHDITLQLAEAERMADGPLKDRPETVVSRSSIIIKPSDPVERNSHAPPAETIRWKSHSAPSEVGFSDARHVTVRNAWKSRRDLKSLEDPPTRIGKNVESTNSNAYTQRSSTDFSELEQPRSCLFEQGTRRVGPSSGDAPEPSSRRTQSSLTVSEVLTRRNRVGDTITVAAWNHSASMEEEGEDCTLSVYRQLHNSLDPSELPGKQGLPESGRVRAEERLRPTRPCAEEN
B4: KLHL6 wild type, C-terminal Strep-HA tag (KLHL6-strHA) [human] / adapter protein BANK1 [human (endogenous in SuDHL5 and U2932)] (parent)
chain 1: B1 chain 1
chain 2: MLPAAPGKGLGSPDPAPCGPAPPGNTKDIIMIYEEDAEEWALYLTEVFLHVVKREAILLYRLENFSFRHLELLNLTSYKCKLLILSNSLLRDLTPKKCQFLEKILHSPKSVVTLLCGVKSSDQLYELLNISQSRWEISTEQEPEDYISVIQSIIFKDSEDYFEVNIPTDLRAKHSGEISERKEIEELSEASRNTIPLAVVLPTEIPCENPGEIFIILRDEVIGDTVEVEFTSSNKRIRTRPALWNKKVWCMKALEFPAGSVHVNVYCDGIVKATTKIKYYPTAKAKECLFRMADSGESLCQNSIEELDGVLTSIFKHEIPYYEFQSLQTEICSQNKYTHFKELPTLLHCAAKFGLKNLAIHLLQCSGATWASKMKNMEGSDPAHIAERHGHKELKKIFEDFSIQEIDINNEQENDYEEDIASFSTYIPSTQNPAFHHESRKTYGQSADGAEANEMEGEGKQNGSGMETKHSPLEVGSESSEDQYDDLYVFIPGADPENNSQEPLMSSRPPLPPPRPVANAFQLERPHFTLPGTMVEGQMERSQNWGHPGVRQETGDEPKGEKEKKEEEKEQEEEEDPYTFAEIDDSEYDMILANLSIKKKTGSRSFIINRPPAPTPRPTSIPPKEETTPYIAQVFQQKTARRQSDDDKFCGLPKKQDRARIESPAFSTLRGCLTDGQEELILLQEKVKNGKMSMDEALEKFKHWQMGKSGLEMIQQEKLRQLRDCIIGKRPEEENVYNKLTIVHHPGGKETAHNENKFYNVHFSNKLPARPQVEKEFGFCCKKDH
B5: KLHL6 wild type, C-terminal Strep-HA tag (KLHL6-strHA) [human] / KLHL7 [human (endogenous in SuDHL5)] (parent)
chain 1: B1 chain 1
chain 2: MAASGVEKSSKKKTEKKLAAREEAKLLAGFMGVMNNMRKQKTLCDVILMVQERKIPAHRVVLAAASHFFNLMFTTNMLESKSFEVELKDAEPDIIEQLVEFAYTARISVNSNNVQSLLDAANQYQIEPVKKMCVDFLKEQVDASNCLGISVLAECLDCPELKATADDFIHQHFTEVYKTDEFLQLDVKRVTHLLNQDTLTVRAEDQVYDAAVRWLKYDEPNRQPFMVDILAKVRFPLISKNFLSKTVQAEPLIQDNPECLKMVISGMRYHLLSPEDREELVDGTRPRRKKHDYRIALFGGSQPQSCRYFNPKDYSWTDIRCPFEKRRDAACVFWDNVVYILGGSQLFPIKRMDCYNVVKDSWYSKLGPPTPRDSLAACAAEGKIYTSGGSEVGNSALYLFECYDTRTESWHTKPSMLTQRCSHGMVEANGLIYVCGGSLGNNVSGRVLNSCEVYDPATETWTELCPMIEARKNHGLVFVKDKIFAVGGQNGLGGLDNVEYYDIKLNEWKMVSPMPWKGVTVKCAAVGSIVYVLAGFQGVGRLGHILEYNTETDKWVANSKVRAFPVTSCLICVVDTCGANEETLET

Variants of: B1
Assay: AP-MS (spectral counts of the WT, leucine-65 peptide in the L65P bait pull-down)
Details: with endogenous KLHL6 [human (endogenous in SuDHL5 and SuDHL4)]; SuDHL5 cells; read off a plot

| response (spectral counts) | Variant |
| --- | --- |
| 5 | chain 1 L65P |

Variants of: B1
Assay: AP-MS (spectral counts of the WT, leucine-90 peptide in the L90F bait pull-down)
Details: with endogenous KLHL6 [human (endogenous in SuDHL5 and SuDHL4)]; SuDHL5 cells; read off a plot

| response (spectral counts) | Variant |
| --- | --- |
| 1 | chain 1 L90F |

Variants of: B2
Assay: AP-MS (Strep affinity purification, spectral counts)
Details: with KLHL26 [human (endogenous in SuDHL5)]; SuDHL5 cells; read off a plot

| response (spectral counts) | Variant |
| --- | --- |
| 15 | chain 1 E568K |
| 0 | chain 1 L65P |
| 0.5 | chain 1 L90F |

Variants of: B2
Assay: AP-MS (Strep affinity purification, mass spectrometry; DESeq2 model)
Details: with KLHL26 [human (endogenous in SuDHL5)]; SuDHL5 cells; WT eight replicates, L65P four replicates; read off a plot

| screen value [log2] | Variant |
| --- | --- |
| 4.4 | chain 1 L65P |

Same assay, conditions: with KLHL26 [human (endogenous in SuDHL5)]; SuDHL5 cells; WT eight replicates, L90F eight replicates; read off a plot

| screen value [log2] | Variant |
| --- | --- |
| 2.7 | chain 1 L90F |

Variants of: B3
Assay: BioID2 proximity labelling, mass spectrometry
Details: with LuZP1 [human (endogenous in SuDHL5 and U2932)]; SuDHL5 cells; read off a plot

| screen value [log2] | Variant |
| --- | --- |
| 2.4 | chain 1 E568K |

Variants of: B3
Assay: BioID2 proximity labelling, mass spectrometry (spectral counts)
Details: with LuZP1 [human (endogenous in SuDHL5 and U2932)]; SuDHL5 cells; read off a plot

| response (spectral counts) | Variant |
| --- | --- |
| 1.5 | chain 1 E568K |
| 1.5 | chain 1 E547K |
| 13 | chain 1 L65P |

Variants of: B4
Assay: AP-MS (Strep affinity purification, spectral counts)
Details: with adapter protein BANK1 [human (endogenous in SuDHL5 and U2932)]; SuDHL5 cells; read off a plot

| response (spectral counts) | Variant |
| --- | --- |
| 0.5 | chain 1 L65P |
| 2 | chain 1 E568K |
| 7.5 | chain 1 L90F |

Variants of: B5
Assay: as above
Details: with KLHL7 [human (endogenous in SuDHL5)]; SuDHL5 cells; read off a plot

| response (spectral counts) | Variant |
| --- | --- |
| 20 | chain 1 E568K |
| 0 | chain 1 L65P |
| 0 | chain 1 L90F |

Variants of: B5
Assay: AP-MS (Strep affinity purification, mass spectrometry; DESeq2 model)
Details: with KLHL7 [human (endogenous in SuDHL5)]; SuDHL5 cells; WT eight replicates, L65P four replicates; read off a plot

| screen value [log2] | Variant |
| --- | --- |
| 4.9 | chain 1 L65P |

Same assay, conditions: with KLHL7 [human (endogenous in SuDHL5)]; SuDHL5 cells; WT eight replicates, L90F eight replicates; read off a plot

| screen value [log2] | Variant |
| --- | --- |
| 4.9 | chain 1 L90F |
